Laboratory results: patent publication US20170015742A1 (published 2017)
Blank lines part the entries; values can stand above or below the binder they belong to.

Key:
Assay in all cases: cell-based or functional assay
[1] = biological target: recombinant human PDGF-BB (human, UniProt P01127 82-190)
Target sequence in this assay (P01127 82-190 limits assumed): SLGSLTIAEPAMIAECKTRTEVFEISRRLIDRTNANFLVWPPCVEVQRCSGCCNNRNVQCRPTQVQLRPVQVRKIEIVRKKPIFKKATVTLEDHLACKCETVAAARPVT

[2] = biological target: recombinant human VEGF165 (human, UniProt P15692 207-395)
[3] = biological target: recombinant human PDGF-BB (human, UniProt P01127 82-190); remark: listed apart in the source
Target sequence in this assay (P01127 82-190 limits assumed): as above

Sequence of recombinant human VEGF165 (P15692 other isoform, or with tags, fused parts or gaps limits assumed): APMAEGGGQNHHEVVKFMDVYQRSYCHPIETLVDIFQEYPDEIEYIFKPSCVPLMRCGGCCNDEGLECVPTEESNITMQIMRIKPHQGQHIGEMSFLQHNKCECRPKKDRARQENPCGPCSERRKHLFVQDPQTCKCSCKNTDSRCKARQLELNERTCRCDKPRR

- Potency IC50 (nM) NIH-3T3 hPDGF-BB [1]: 0.327 nM
B1: 9E8.4E-GS-9A8.12 (bispecific antibody, human IgG1, kappa, L234A L235A)
heavy: EVTLRESGPALVKPTQTLTLTCTFSGFSLSTYGMGVGWIRQPPGKALEWLANIWWDDDKYYNPSLKNRLTISKDTSKNQVVLTMTNMDPVDTATYYCARIESIGTTYSFDYWGQGTMVTVSSGGGGSGGGGSEVQLVQSGAEVKKPGASVKVSCKASGYTFTNYGMYWVRQAPGQGLEWMGWINTETGKPIYADDFKGRVTMTTDTSTSTAYMELRSLRSDDTAVYYCARVDYDGSFWFAYWGQGTLVTVSSASTKGPSVFPLAPSSKSTSGGTAALGCLVKDYFPEPVTVSWNSGALTSGVHTFPAVLQSSGLYSLSSVVTVPSSSLGTQTYICNVNHKPSNTKVDKKVEPKSCDKTHTCPPCPAPEAAGGPSVFLFPPKPKDTLMISRTPEVTCVVVDVSHEDPEVKFNWYVDGVEVHNAKTKPREEQYNSTYRVVSVLTVLHQDWLNGKEYKCKVSNKALPAPIEKTISKAKGQPREPQVYTLPPSREEMTKNQVSLTCLVKGFYPSDIAVEWESNGQPENNYKTTPPVLDSDGSFFLYSKLTVDKSRWQQGNVFSCSVMHEALHNAYTQKSLSLSPGK
light: EFVLTQSPGTLSLSPGERATLSCERSSGDIGESYVSWYQQKPGQAPRLVIYADDQRPSGIPDRFSGSGSGTDFTLTISRLEPEDFAVYYCQSYDINIDIVFGGGTKVEIKRGGSGGGGSGDTQLTQSPSSLSASVGDRVTITCRASESVSTVIHWYQQKPGKQPKLLIHGASNLESGVPSRFSGSGSGTDFTLTISSLQPEDFATYFCQQHWNDPPTFGQGTKLEIKRTVAAPSVFIFPPSDEQLKSGTASVVCLLNNFYPREAKVQWKVDNALQSGNSQESVTEQDSKDSTYSLSSTLTLSKADYEKHKVYACEVTHQGLSSPVTKSFNRGEC

- Potency IC50 (nM) HMVEC-d hVEGF165 [2]: 0.124 nM
- Potency IC50 (nM) NIH-3T3 hPDGF-BB [1]: 0.222 nM
B2: AB014-GS6-9E8.4 VH-VK (bispecific antibody, human IgG1, kappa, L234A L235A)
heavy: EVQLVESGGGLVQPGGSLRLSCAASGYTFTNYGMNWVRQAPGKGLEWVGWINTYTGEPTYAADFKRRFTFSLDTSKSTAYLQMNSLRAEDTAVYYCAKYPHYYGSSHWYFDVWGQGTLVTVSSASTKGPSVFPLAPSSKSTSGGTAALGCLVKDYFPEPVTVSWNSGALTSGVHTFPAVLQSSGLYSLSSVVTVPSSSLGTQTYICNVNHKPSNTKVDKKVEPKSCDKTHTCPPCPAPEAAGGPSVFLFPPKPKDTLMISRTPEVTCVVVDVSHEDPEVKFNWYVDGVEVHNAKTKPREEQYNSTYRVVSVLTVLHQDWLNGKEYKCKVSNKALPAPIEKTISKAKGQPREPQVYTLPPSREEMTKNQVSLTCLVKGFYPSDIAVEWESNGQPENNYKTTPPVLDSDGSFFLYSKLTVDKSRWQQGNVFSCSVMHEALHNAYTQKSLSLSPGKGGSGGGEVTLRESGPALVKPTQTLTLTCTFSGFSLSTYGMGVGWIRQPPGKALEWLANIWWDDDKYYNPSLKNRLTISKDTSKNQVVLTMTNMDPVDTATYYCARIESIGTTYSFDYWGQGTMVTVSSGGGGSGGGGSGGGGSEIVLTQSPGTLSLSPGERATLSCERSSGDIGDSYVSWYQQKPGQAPRLVIYADDQRPSGIPDRFSGSGSGTDFTLTISRLEPEDFAVYYCQSYDINIDIVFGGGTKVEIK
light: not shown

- NIH-3T3 hPDGF-BB Potency IC50 [3]: 0.133 nM
B3: 9A8.12-LS-9E8.4E DVD-Ig (PR-1577547) (bispecific antibody, human IgG1, kappa, L234A L235A)
heavy: EVQLVQSGAEVKKPGASVKVSCKASGYTFTNYGMYWVRQAPGQGLEWMGWINTETGKPIYADDFKGRVTMTTDTSTSTAYMELRSLRSDDTAVYYCARVDYDGSFWFAYWGQGTLVTVSSASTKGPSVFPLAPEVTLRESGPALVKPTQTLTLTCTFSGFSLSTYGMGVGWIRQPPGKALEWLANIWWDDDKYYNPSLKNRLTISKDTSKNQVVLTMTNMDPVDTATYYCARIESIGTTYSFDYWGQGTMVTVSSASTKGPSVFPLAPSSKSTSGGTAALGCLVKDYFPEPVTVSWNSGALTSGVHTFPAVLQSSGLYSLSSVVTVPSSSLGTQTYICNVNHKPSNTKVDKKVEPKSCDKTHTCPPCPAPEAAGGPSVFLFPPKPKDTLMISRTPEVTCVVVDVSHEDPEVKFNWYVDGVEVHNAKTKPREEQYNSTYRVVSVLTVLHQDWLNGKEYKCKVSNKALPAPIEKTISKAKGQPREPQVYTLPPSREEMTKNQVSLTCLVKGFYPSDIAVEWESNGQPENNYKTTPPVLDSDGSFFLYSKLTVDKSRWQQGNVFSCSVMHEALHNAYTQKSLSLSPGK
light: DTQLTQSPSSLSASVGDRVTITCRASESVSTVIHWYQQKPGKQPKLLIHGASNLESGVPSRFSGSGSGTDFTLTISSLQPEDFATYFCQQHWNDPPTFGQGTKLEIKRTVAAPEFVLTQSPGTLSLSPGERATLSCERSSGDIGESYVSWYQQKPGQAPRLVIYADDQRPSGIPDRFSGSGSGTDFTLTISRLEPEDFAVYYCQSYDINIDIVFGGGTKVEIKRTVAAPSVFIFPPSDEQLKSGTASVVCLLNNFYPREAKVQWKVDNALQSGNSQESVTEQDSKDSTYSLSSTLTLSKADYEKHKVYACEVTHQGLSSPVTKSFNRGEC

- NIH-3T3 hPDGF-BB Potency IC50 [3]: 0.147 nM
B4: 9E8.4E-SL-9A8.12 DVD-Ig (PR-1577548) (bispecific antibody, human IgG1, kappa, L234A L235A)
heavy: EVTLRESGPALVKPTQTLTLTCTFSGFSLSTYGMGVGWIRQPPGKALEWLANIWWDDDKYYNPSLKNRLTISKDTSKNQVVLTMTNMDPVDTATYYCARIESIGTTYSFDYWGQGTMVTVSSASTKGPEVQLVQSGAEVKKPGASVKVSCKASGYTFTNYGMYWVRQAPGQGLEWMGWINTETGKPIYADDFKGRVTMTTDTSTSTAYMELRSLRSDDTAVYYCARVDYDGSFWFAYWGQGTLVTVSSASTKGPSVFPLAPSSKSTSGGTAALGCLVKDYFPEPVTVSWNSGALTSGVHTFPAVLQSSGLYSLSSVVTVPSSSLGTQTYICNVNHKPSNTKVDKKVEPKSCDKTHTCPPCPAPEAAGGPSVFLFPPKPKDTLMISRTPEVTCVVVDVSHEDPEVKFNWYVDGVEVHNAKTKPREEQYNSTYRVVSVLTVLHQDWLNGKEYKCKVSNKALPAPIEKTISKAKGQPREPQVYTLPPSREEMTKNQVSLTCLVKGFYPSDIAVEWESNGQPENNYKTTPPVLDSDGSFFLYSKLTVDKSRWQQGNVFSCSVMHEALHNAYTQKSLSLSPGK
light: EFVLTQSPGTLSLSPGERATLSCERSSGDIGESYVSWYQQKPGQAPRLVIYADDQRPSGIPDRFSGSGSGTDFTLTISRLEPEDFAVYYCQSYDINIDIVFGGGTKVEIKRTVAAPSVFIFPPDTQLTQSPSSLSASVGDRVTITCRASESVSTVIHWYQQKPGKQPKLLIHGASNLESGVPSRFSGSGSGTDFTLTISSLQPEDFATYFCQQHWNDPPTFGQGTKLEIKRTVAAPSVFIFPPSDEQLKSGTASVVCLLNNFYPREAKVQWKVDNALQSGNSQESVTEQDSKDSTYSLSSTLTLSKADYEKHKVYACEVTHQGLSSPVTKSFNRGEC

- Potency IC50 (nM) NIH-3T3 hPDGF-BB [1]: 0.066 nM
B5: 9E8.4E-LS-9A8.12 (bispecific antibody, human IgG1, kappa, L234A L235A)
heavy: EVTLRESGPALVKPTQTLTLTCTFSGFSLSTYGMGVGWIRQPPGKALEWLANIWWDDDKYYNPSLKNRLTISKDTSKNQVVLTMTNMDPVDTATYYCARIESIGTTYSFDYWGQGTMVTVSSASTKGPSVFPLAPEVQLVQSGAEVKKPGASVKVSCKASGYTFTNYGMYWVRQAPGQGLEWMGWINTETGKPIYADDFKGRVTMTTDTSTSTAYMELRSLRSDDTAVYYCARVDYDGSFWFAYWGQGTLVTVSSASTKGPSVFPLAPSSKSTSGGTAALGCLVKDYFPEPVTVSWNSGALTSGVHTFPAVLQSSGLYSLSSVVTVPSSSLGTQTYICNVNHKPSNTKVDKKVEPKSCDKTHTCPPCPAPEAAGGPSVFLFPPKPKDTLMISRTPEVTCVVVDVSHEDPEVKFNWYVDGVEVHNAKTKPREEQYNSTYRVVSVLTVLHQDWLNGKEYKCKVSNKALPAPIEKTISKAKGQPREPQVYTLPPSREEMTKNQVSLTCLVKGFYPSDIAVEWESNGQPENNYKTTPPVLDSDGSFFLYSKLTVDKSRWQQGNVFSCSVMHEALHNAYTQKSLSLSPGK
light: EFVLTQSPGTLSLSPGERATLSCERSSGDIGESYVSWYQQKPGQAPRLVIYADDQRPSGIPDRFSGSGSGTDFTLTISRLEPEDFAVYYCQSYDINIDIVFGGGTKVEIKRTVAAPDTQLTQSPSSLSASVGDRVTITCRASESVSTVIHWYQQKPGKQPKLLIHGASNLESGVPSRFSGSGSGTDFTLTISSLQPEDFATYFCQQHWNDPPTFGQGTKLEIKRTVAAPSVFIFPPSDEQLKSGTASVVCLLNNFYPREAKVQWKVDNALQSGNSQESVTEQDSKDSTYSLSSTLTLSKADYEKHKVYACEVTHQGLSSPVTKSFNRGEC
